Test results from paper PMC7531507.

How the values were obtained:
[1] = molecular target: cynomolgus monkey GCGR (cynomolgus monkey)
[2] = molecular target: cynomolgus monkey GLP-1R (cynomolgus monkey)
[3] = molecular target: human glucagon receptor (GCGR) (human) (UniProt P47871)
mouse GCGR (mouse) = mouse GCGR (mouse) (UniProt Q61606)
mouse GLP-1R (mouse) = mouse GLP-1R (mouse) (UniProt O35659)
rat GCGR (rat) = rat GCGR (rat) (UniProt P30082)
rat GLP-1R (rat) = rat GLP-1R (rat) (UniProt P32301)
Sequence of UniProt P32301 (P32301 22-463): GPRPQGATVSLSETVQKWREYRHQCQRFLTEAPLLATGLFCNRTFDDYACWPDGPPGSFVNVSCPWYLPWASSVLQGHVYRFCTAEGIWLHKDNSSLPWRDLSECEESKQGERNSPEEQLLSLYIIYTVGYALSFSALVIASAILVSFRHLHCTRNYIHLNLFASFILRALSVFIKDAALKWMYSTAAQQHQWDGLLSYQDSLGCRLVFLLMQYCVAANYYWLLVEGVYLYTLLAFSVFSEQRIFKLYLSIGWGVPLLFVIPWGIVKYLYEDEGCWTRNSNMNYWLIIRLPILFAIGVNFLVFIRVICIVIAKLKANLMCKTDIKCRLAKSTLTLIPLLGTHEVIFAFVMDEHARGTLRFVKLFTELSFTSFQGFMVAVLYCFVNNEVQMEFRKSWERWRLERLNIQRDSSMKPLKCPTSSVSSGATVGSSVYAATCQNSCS

Sequence of UniProt P30082 (P30082 27-485): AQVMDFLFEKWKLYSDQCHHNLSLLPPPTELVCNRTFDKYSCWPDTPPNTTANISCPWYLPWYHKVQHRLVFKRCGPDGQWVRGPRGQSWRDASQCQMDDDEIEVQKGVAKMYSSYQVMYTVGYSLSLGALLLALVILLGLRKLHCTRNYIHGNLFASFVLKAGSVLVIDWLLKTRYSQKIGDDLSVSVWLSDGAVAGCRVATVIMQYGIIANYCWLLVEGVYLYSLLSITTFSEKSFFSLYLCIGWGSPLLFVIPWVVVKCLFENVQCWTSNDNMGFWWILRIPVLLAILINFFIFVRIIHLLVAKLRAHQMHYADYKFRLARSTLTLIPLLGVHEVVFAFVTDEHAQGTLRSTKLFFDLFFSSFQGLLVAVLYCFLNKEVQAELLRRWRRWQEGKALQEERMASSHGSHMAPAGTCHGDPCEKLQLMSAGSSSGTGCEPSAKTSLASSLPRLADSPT
Sequence of UniProt O35659 (O35659 22-463): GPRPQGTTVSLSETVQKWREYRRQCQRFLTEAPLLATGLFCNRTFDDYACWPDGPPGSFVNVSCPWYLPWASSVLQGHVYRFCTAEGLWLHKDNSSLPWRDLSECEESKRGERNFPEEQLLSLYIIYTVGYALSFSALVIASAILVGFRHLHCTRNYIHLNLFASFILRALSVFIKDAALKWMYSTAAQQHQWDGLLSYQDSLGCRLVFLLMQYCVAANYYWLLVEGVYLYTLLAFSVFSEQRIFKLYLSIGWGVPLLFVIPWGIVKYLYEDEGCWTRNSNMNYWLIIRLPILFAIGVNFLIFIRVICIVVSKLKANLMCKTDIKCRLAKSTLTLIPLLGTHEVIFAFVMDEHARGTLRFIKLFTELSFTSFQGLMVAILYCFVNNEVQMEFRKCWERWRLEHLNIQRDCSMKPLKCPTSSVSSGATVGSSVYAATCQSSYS
Sequence of UniProt Q61606 (Q61606 27-485): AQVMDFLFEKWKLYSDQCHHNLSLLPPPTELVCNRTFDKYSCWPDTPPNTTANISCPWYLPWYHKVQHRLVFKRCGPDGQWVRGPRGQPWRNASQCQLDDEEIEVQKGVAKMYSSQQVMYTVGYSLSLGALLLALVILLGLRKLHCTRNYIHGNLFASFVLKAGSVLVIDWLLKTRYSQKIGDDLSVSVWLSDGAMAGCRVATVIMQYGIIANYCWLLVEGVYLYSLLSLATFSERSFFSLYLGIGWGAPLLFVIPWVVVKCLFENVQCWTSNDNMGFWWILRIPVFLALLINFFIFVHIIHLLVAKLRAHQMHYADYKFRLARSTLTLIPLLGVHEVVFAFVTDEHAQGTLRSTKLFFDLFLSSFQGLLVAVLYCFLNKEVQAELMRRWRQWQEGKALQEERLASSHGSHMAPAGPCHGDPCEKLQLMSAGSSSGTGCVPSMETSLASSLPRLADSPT
Sequence of UniProt P47871 (P47871 26-477): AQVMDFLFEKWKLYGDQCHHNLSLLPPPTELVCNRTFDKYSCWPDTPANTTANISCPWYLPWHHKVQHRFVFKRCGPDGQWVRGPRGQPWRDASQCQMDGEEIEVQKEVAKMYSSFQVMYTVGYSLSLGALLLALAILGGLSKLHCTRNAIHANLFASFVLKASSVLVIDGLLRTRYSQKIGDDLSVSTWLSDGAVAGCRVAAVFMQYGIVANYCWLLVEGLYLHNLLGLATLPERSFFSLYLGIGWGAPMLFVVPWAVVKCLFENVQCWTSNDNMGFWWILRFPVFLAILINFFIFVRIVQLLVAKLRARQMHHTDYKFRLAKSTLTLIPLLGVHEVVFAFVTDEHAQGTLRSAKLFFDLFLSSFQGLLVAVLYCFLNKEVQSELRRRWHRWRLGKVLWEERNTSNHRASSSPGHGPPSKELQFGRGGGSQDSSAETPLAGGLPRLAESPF

## native oxyntomodulin (peptide)
[1]
  EC50 of cAMP in clonal HEK293 cells stably expressing cynomolgus monkey GCGR: 0.49 nM
[2]
  EC50 of cAMP in clonal HEK293 cells stably expressing cynomolgus monkey GLP-1R: 0.8 nM
[3]
  EC50 of cAMP in clonal HEK293 cells stably expressing human GCGR: 3.01 nM
Mouse GCGR (mouse)
  EC50 of cAMP in clonal HEK293 cells stably expressing mouse GCGR: 6.31 nM
Mouse GLP-1R (mouse)
  EC50 of cAMP in clonal HEK293 cells stably expressing mouse GLP-1R: 1.9 nM
Rat GCGR (rat)
  EC50 of cAMP in clonal HEK293 cells stably expressing rat GCGR: 12.7 nM
Rat GLP-1R (rat)
  EC50 of cAMP in clonal HEK293 cells stably expressing rat GLP-1R: 0.98 nM
